Results: the nanobody polyreactivity screen of Harvey et al. (2022)

Experiment: yeast display, Sf9 membrane polyspecificity reagent, FACS + sequencing; frameworks hold sequencing errors
Procedure, shortened: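 Using colony PCR, genes from sorted yeast display clones were amplified, then sequenced on MiSeq at 2 × 250 and filtered by CDR length. The clones had been stained with 10% biotinylated, detergent-solubilized Sf9 membrane reagent for 1 hour at 4 °C and sorted by FACS into low and high (top ~1%) gates on anti-HA and streptavidin fluorescence. Polyreactivity labels come from the gate of origin.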

Sequence | polyreactivity (PSR sort gate)
QVQLVDSAGVLVQAGGSLSLICAASGRTYGIYAMGWYRQAPGKERELVADISSDASTSYAYSVKGRFTISRDNAKNTVYLQMNSLKAEDTAVYYCAADPGPYYDWGYYYWGQGTQVTVSS | low polyreactivity
QVQLVESGGGLVQAGGSLRVSCAASGLTLPPYAMGWDRQAPGKERELVAAITSGGSTNYADSVKGRFTISRDKAKNTVYLQLNSLKPEDTAVYYCAAVGRHYYVKFDFWGQGTHVTVSS | low polyreactivity
QVQLVESGGGLVQAGGSLRLSCAASGIIFAYYAMGRSRQAPGKEMEFVAGISCSGSSTNYADSVKGRFTISRDNAKNTVYFQMNSLKPEDTAVYYCAARSRRYHRTKPKYDYWGQGTQVTVSS | high polyreactivity
QVQLVESGGGLVQAGGSLRLSCAASGSTFAKNAMGVYRQAPGKERELVAAISRGGNTYYADSVKGRFTISRDNAKITVYLLMNSLKPEDTAVYYCAARYLFRSLNMDYWGQVTQVTVSS | high polyreactivity
QVQLVESGAGLVHAGGSLRLSCASSGSIFNVYAMGWYRQAPGKERELVAAIRSSGGSTYYADSVKGRFTISRDKAKNTVNLQMNSLKPEDTAVYYCAAVTRAIRTWRMYYWGQGTQVTVSS | high polyreactivity
QVQLVESGGGLVQAGGSLRLSCAASGRTFTHNAMGWYRQAPGKERELVAGITSGGSTNYADSVKGRFTISRDNAKNTVYLQMNSLKPEDTAVYYCNKVFFWSRYKGYYYWGQGTQVTVSS | high polyreactivity
QVQLVESGGGLVQAGGSLRLSCAASGRIFDPNAMGWYRQAPGKERELVARIRWWSDGSTYYADSVKGRFTISRDNAKNTVYLQMNSLKPEDTAVYYCATTANRVYGYAPWFGPRSEYWGQGTQVTVSS | high polyreactivity
QVQLVESGGGLVQAGGSLRLSCAASGSIFGRNAMGWYRPAPGKERELVAAISRRGGNTYYADSVKGRFTISRDNAKNTVYLQMNSLKPEDTAVYYCAAEVKTSYSYTHDGYWGQGTQVTVSS | high polyreactivity
QVQLVESGGGLVQAGGSLRLSCAASGRIFTNNAMGWYRQAPGKERELVAAITRGGTTNYADSVKGRFTISRDNAKNTVYLHMNSLKPEDTAVYFCARAGAHPWWSRSTMYYWGQGTQVTVSS | low polyreactivity
PDQLVESGGGLVQAGGSLRLSCAASGRIFGTNAMGWYRQAPGKERELVADITSGGSTNYADSVKGRFTISRDNAKNTVYLQMNSLKPEDTAVYYCAADVIGDLRWYRDEYWGQGTQVTVSS | low polyreactivity
QVQLVESGGGLVQAGGSLRLSCAASGYIFAYYAMGWYRQEPGKERELVADIRGRGGSTYYADSVKGRFTISRDNAKNTVYLQMNSLKTEDTAVYYCARRSPNPYSIYYYWGQGTQVTVSS | high polyreactivity
QFQLVESGGGLVQAGGSLRLSCAASGFTFDNYVMGWYRQAPGKERELVAAISKSGTSTYYADSVKGRFTISRDNAKNTVYLQMNSLKPEDTAVYYCAAALPGYGDYYYWGQGTQVTVSS | high polyreactivity
QVQLVESGGGLVQAGGSLRLSCAASGSTFSYNAMGWYRQAPGKERELVAAINLRGGNTYYADSVKGRFTNSRDNAKNTVYLQMNSLKPEDTAVYYCARTRRHSQTFDYWGQGTQVIVSS | high polyreactivity
QVQRVESGGGLVQAGGSLRLSCAASGSIFYWYAMGWNIQAPGEEREFVAAITWSGGSTYYADSVKGRFTISRDNAKNTVYLQMNSLQPEDTAVYSCAAQGRRYGYGDFYYWGQGSQVTVSS | high polyreactivity
QVQLVESGVGLVQAGGSLRLSCAASGGIFVPYAMGWYRQAPGKEREWVARIRSGGTTNYADSVKGRFTISRDNAKNTVYLQRNSLKPEDTAVYYCAVAAGIPQRRDYYWGQGTQVTVSS | high polyreactivity
QVQLVESGGGLVQAGGSLRLSCAASGNILYANAMGWYRQAPGKERELVATINVSADSTYADSVKGRFTISRDNAKNTVYLQMNRLNPEDTAVYYCNAYGLYEKWGPWTVPYYYWGQVTQVTVSS | low polyreactivity
QVHLVESGGGLDQAGGSLRLSCAASGSTFSGYAMGWYRQAPGKERELVAAISSTGRTYYADSVKGRFTISRDNAKNTVYLQMNSLIPEDTALYYCAAKRYTVYGHKYEYWGQGTQVTVSS | high polyreactivity
QVQLVESGGGLVQAGGSLRLSCAASGLTFWKNVMGWYRQAPGKERELVAAISWSGDSTYYADSVKGRFTISRDNAKNTVYLQMNSLKPEDTAVYYCAARYVSRYWAGRYPTRQRDSWGQGTQVTVSS | high polyreactivity
QVQLVESGGGLVQAGGSLRLSCAASGRIFYYYAMGWYRQAPGKERELVAAISSIDGTTYYADSVKGRFTISRDNAKNTVYLQMNSLKPEDTAVYYCAAEDPADQYDYWGQGTQVTVSS | high polyreactivity
QVQLVESGGGLVQAGGSLRLSCAASGRIFWTYAMGWYRQAPGKERELVASITWSGGSTYYADSVKGRFTISRDNAKNTVYLQMNSLKPEDTAVYYCHTDVLAPYDSGYWGQGTQVTVSS | low polyreactivity
QVQLVESGGGLVQAGGSLRLSCAASGSIFSTYAMGWYRQAPGKERELVAAINRGTSTNYADSVKGRFTISRDNAKNTVYLQMNSLKPEDTAVYYCAAYYRGRYGPRRSEYWGQGTQVTVSS | high polyreactivity
QVQLVESGGGLVQAGGSLRLSCAASGFTFSAYAMGWYRQAPGKERELVAAISWSGSRTYYADSVKGRFTISRDNAKNTVYLQMNSLKPEDTAVYYCAKEPYDTFGFYEYDYWGQGTQVTVSS | low polyreactivity

Sequence | polyreactivity (PSR sort gate)
QVQLVESGGGSVQAGGSLRLSCAASGFTFDKNTMGWYRQAPGKERELVAAISSSGSSTYYADSVKGRFTISRDNAKNTVYLQMNSLKPEDTAVYYCAADYWGWDDYSEYYYWGQGTQVTVSS | high polyreactivity
QVQLVESGGGLVHAGGSLRLSCAASGNIFKRNAMGWYRQAHGKERELVAAISGSGVRTYYADSVKGRFTISRDNAKNSVYLQMNSLKPEDTAVYYCNAEIRYSAWNWLSYEYWGQGTQVTVSS | high polyreactivity
QVQLVESGGRLVQAGVILRLSCAASGSTFAPYAMGWYRQSPGKESELVATISASGGTTYYADSVKGRFTISRDNAKNTVYLQMNSLKPEDTAVYYCNADSNWYDQWNYYGLNDYWGQGTQVTVSS | low polyreactivity
QVQLVESGGRLVQAGGSLRLICAASGFTFGAYAMGWYRQAPGKERELVATIPYSGDSTYYADSVKGRFTISRDNAKNTVYLQMNSLKPEDTSVYYCAAYSTEGCGSPDWFESFDYWGQGTLVTVSS | low polyreactivity
QVQLVESGGGLVQAGGSLRLSCAASGSIFYGNAMGWYRQAPGKERELVAGISWSGGSTYYADSVKGRFTISRDNAKNSVFLQMNSLKPEETAVYYCAAVRWGSYTLSDDYWGQGTQLTVSS | low polyreactivity
QVQLVESCGGLVQAGGSLRLSCADSGYTFTTYVMGWYRQAPGKERELVAAISRRGTSTRYADSVKGRFTISRDNAKNTVYFQMNSLKPEDTAVYYCAARSSVPNRFTRDGYWGQGTQVTVSS | high polyreactivity
QVQLVESGGGLVQAGGSLRLSCAASGITLYGNAMGWYRQAPGKEREFVAAISRSGDRTYYADSVKGRFTISRDNAKNTVYLPMYSLKPEDTAVYSCARDYRSYTGSYDTSYDYWGQGTQVTVSS | high polyreactivity
QVQLVESGGGLVQAGGSLRLSCAPSGYIFEIYAMGWYSQEPGKERELVAAISTRGGRTYYADSVKGRFTISRDKAKNTVYLQMNSLKPEDTAVYYCAAGFPYKFTYVGGYNHWGQGTQVTVSS | low polyreactivity
QVQLVESGGGLVQAGGSLRLSCAASGRTFRYYTMGWYRPAPGKEREFVSSISWNGGSTYYADSVKGRFTISRDNAKNTVYLQIKSLKPEDTAVYYCSADDPYRVYRGPYGYWGQCTQVTVSS | high polyreactivity
QVQHVESGGGLVQAGGSLRLSCAASGITFGRNTKGWYRQAPGKERELVAAIDSGGNTYADSVKGRFTISRDNAKNTVYLQMNSLKPEDTAVYYCAVDGGEFSSYGYWGQGTQVTVSS | low polyreactivity
QVQLVESGGGLVQAGGSLRLSCAASGSTFRYYGMGWYRQAPGKERELVATINRGGRTYYADSVKGRFTISRDNAKNTVYLQMNSLKPEDTAVYYCAADYYYYVACVHDDYWGQGTQVTGSS | low polyreactivity
PVQLQESGGGLVQAGRSLRMSSAASGNIFDADIMGWYRQAPGKERELVACIADGGSTNYADSVKGRFTISRDNAKYTVYLQMNSLKPEDTAVYYCAAIAYPDIPTCFDYDSDYFFRGQGTQVTVSS | low polyreactivity
QVQLVESGGGLDQAGGSLRLSCAASGRISGYYDMVWYRQAPGKERELVATITSDGGTNYADSVKGRFTISRDNAKNCVYLQINSLKPEDTAVYYCAAYGWYTKWHFAYGYWGQGTQVTVSS | low polyreactivity
QVQLVESGGGLVQAGGSLRLSCAASGRIFVDNAMGWYRQAPGKERELVAAITRGGSTYADSVKGRFTISRDNAQNTVYLQMISLKPEDTAVYYCAADLWSVPFTVYTFGIFYYWGQGTQVTVSS | low polyreactivity
QVQLVESGGGLVQAGGSLRLSCAASGRIFSRYTMGWYRQAPGKERELVAAISYSGGRTYYADSVKGRFTISRDNAKNTVYLQMYSLKPEDTAVYYCAAPRSVVGAYGFYYWGQGTQVTVSS | high polyreactivity
QVQLVESGGGLVKAGGSLRLSCAASGSISSGYVMGWYRQAPGKERELVASISYSGTSTYYADSVKGRFTISRDNAKNTVYLQMNSLKPEDTAVYYCAALSRRRFGYWGQGTQVTVSS | high polyreactivity
QVHLVESGGGLVQAGGSLRLSCAASGSTFKRYAMGWYRQAPGKERELVASISQRGGTTYYADSVKGRFTISRDNAKNTVYLQMNSLKPEDTAVYYCANGFGWTRTIYDYWGQGTQVTVSS | high polyreactivity
QFQLVESGGGLVQAGGSLRLSCADSGIIFRDNAMGWYRQAPGKERELVATIRRRGGGTYYADSVKGRFTISRDNAKNTVYLQMNSLKPEDSAVYYCAARVIKSSHDYDYWGQGTQVTVSS | low polyreactivity
QVQLVESGGGVVQAGGSLRLSCAASGLIIPFYARGWYRQAPGKERELVAAISWSAGSTYYADSVKGRFTMSRDNAKTTVYLQMNSLKPEDTAVYYCATDRNPADFYWGQGTQVTVSS | low polyreactivity
QVQLVESGGGLVQAGGSLRLSCAASGIIFYLYAMGWYRQARGKEWELVAAISRRGVSTYYADSLMGRFTISRDNAKNTVYLQMNSLKPEDTAVYYCAAAGFGYTGEEYWGQGTQVTVSS | high polyreactivity
QVQLVESAAGLVQAGGSLRLSCAASGFIFWYYAMGWSRQAPGKERELVAAINSSGGSTYYADSVKGRFSISRDNAKNTVYLQMNSLKPEDSAVYYCAARAYQRGNYWGQGTQVTVSS | high polyreactivity
